Here are results for 1 substance from patent publication US20190085092A1.

This experiment addresses STn expressing TAG-72 glycoprotein (human tumor-associated glycoprotein 72) (human) (UniProt Q01973). Kind of experiment: flow cytometry on LS174T cells, 5 µg 3E8, detected with mouse anti-human IgG-PE. Background: In flow cytometry, cells or beads pass a laser one at a time.
Sequence of UniProt Q01973 (Q01973 30-937 limits assumed): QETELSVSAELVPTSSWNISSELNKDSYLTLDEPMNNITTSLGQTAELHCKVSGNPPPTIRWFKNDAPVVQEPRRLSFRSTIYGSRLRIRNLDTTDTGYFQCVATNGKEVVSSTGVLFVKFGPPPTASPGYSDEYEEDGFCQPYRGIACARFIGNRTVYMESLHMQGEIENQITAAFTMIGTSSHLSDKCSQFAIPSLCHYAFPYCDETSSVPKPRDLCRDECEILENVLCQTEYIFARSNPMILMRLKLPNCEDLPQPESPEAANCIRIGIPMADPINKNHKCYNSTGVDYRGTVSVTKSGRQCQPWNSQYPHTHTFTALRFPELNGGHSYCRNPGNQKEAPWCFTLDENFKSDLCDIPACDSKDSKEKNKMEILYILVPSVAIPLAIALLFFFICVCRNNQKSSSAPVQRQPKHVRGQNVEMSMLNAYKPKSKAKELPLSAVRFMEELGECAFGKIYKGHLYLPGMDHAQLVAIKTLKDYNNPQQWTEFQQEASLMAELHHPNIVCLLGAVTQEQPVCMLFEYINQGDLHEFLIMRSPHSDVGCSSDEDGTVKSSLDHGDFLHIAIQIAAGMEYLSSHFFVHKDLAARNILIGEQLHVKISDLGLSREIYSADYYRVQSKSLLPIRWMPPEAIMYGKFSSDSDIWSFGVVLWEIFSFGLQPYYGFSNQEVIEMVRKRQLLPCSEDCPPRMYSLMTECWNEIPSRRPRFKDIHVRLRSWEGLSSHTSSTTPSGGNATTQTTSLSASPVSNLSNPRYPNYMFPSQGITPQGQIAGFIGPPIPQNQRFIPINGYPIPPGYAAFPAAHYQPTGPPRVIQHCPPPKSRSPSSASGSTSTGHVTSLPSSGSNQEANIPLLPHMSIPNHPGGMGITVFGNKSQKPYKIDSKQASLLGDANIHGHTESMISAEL

STn specific antibody (3E8) gave a percent of cells stained of 98%.
